One assay deals with T1, human 14-3-3 isoform σ (Homo sapiens, UniProt P31947).
T1 construct: MBP (cleaved yes); made in house; host or cells: E. coli BL21DE3
T1 sequence (P31947 1-248): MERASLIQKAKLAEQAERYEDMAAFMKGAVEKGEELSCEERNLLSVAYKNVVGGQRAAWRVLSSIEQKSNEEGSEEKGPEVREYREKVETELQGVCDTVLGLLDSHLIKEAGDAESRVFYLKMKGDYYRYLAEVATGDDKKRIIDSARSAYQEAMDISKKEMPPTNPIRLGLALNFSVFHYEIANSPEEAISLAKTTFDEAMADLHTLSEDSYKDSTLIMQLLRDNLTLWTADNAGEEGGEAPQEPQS
The assay can be described thus: Fluorescence polarization (FP) direct binding assay. The conditions noted are these: fluorescein-labeled peptide 1 nM. How it is done:
(§1) Human MBP-tagged 14-3-3 isoforms were expressed from pMAL2CX plasmids [[Kilisch et al. (2016)], [Yuan et al. (2003)]] in E. coli BL21DE3 cells. After induction with […] isopropyl-β-D-thiogalactoside, the protein was expressed for 4 h at room temperature. Cells were lysed in MBP-lysis buffer [50 mM Tris–HCl pH 7.5, 150 mM NaCl, 5 mM MgCl2, 1 mM PMSF, 1× cOmplete Protease Inhibitor EDTA-free (Roche)] using a French Pressure cell (FRENCH Press, Thermo, United States). Following centrifugation at 42,000 × g and 4°C for 30 min, the supernatant was transferred to a Maltose-agarose column (1.5 ml bed volume; New England Biolabs GmbH, Germany). Captured proteins were washed six times with 10 ml wash buffer (50 mM Tris–HCl pH 7.5, 150 mM NaCl, 5 mM MgCl2) prior to elution using wash buffer including 15 mM D-maltose. To remove the MBP tag, fusion proteins were incubated with Factor Xa (New England Biolabs GmbH, Germany), at a final concentration of 0.4 μg per 1 mg fusion protein for 24 h at RT following another 72 h at 4°C. Anion exchange chromatography was finally applied to separate residual MBP using a buffer gradient from 20 mM Tris pH 8 to 20 mM Tris pH 8 with 1 M NaCl. For this a RESOURCE Q column (GE Healthcare, United Kingdom) was utilized, employing an ÄKTApurifier (GE Healthcare, United Kingdom) or an NGC Quest Chromatography System (Bio-Rad Laboratories GmbH, Germany).
(§2) FP was used to determine binding affinities of different phosphorylated and non-phosphorylated peptides derived from LRRK2 sequences (Peps4LS GmbH, Germany) toward human 14-3-3 isoforms. Direct binding assays were performed and evaluated as previously described ([Muda et al., 2014]; [Manschwetus et al., 2019]). Briefly, both dilution series of 14-3-3 isoforms ranging from final concentrations of at least 5 μM down to picomolar concentrations and dilutions of the respective fluorescein-labeled peptide (final conc. 1 nM) were prepared in FP buffer (20 mM MOPS pH 7, 150 mM NaCl, 0.005% CHAPS). Subsequently, samples were mixed in 384-well microtiter plates as duplicates (BRAND plates, pureGrade, black, BRAND GmbH & Co. KG, Germany) in a 1:1 ratio and measured using a CLARIOstar plate reader (BMG LABTECH, Germany). Two protein preparations were utilized for at least two independent replications for all measurements while high affinity binding peptides were particularly measured with a minimum of three independent replications for statistical evaluation. Data was analyzed with GraphPad Prism 6.0 (GraphPad Software, San Diego, CA, United States) by plotting obtained FP signals (mPol) against the logarithmic 14-3-3 protein concentrations. Data points represent means ± standard error of mean (SEM) of duplicates. “Ctrl.” indicates the FP signal of fluorescein-labeled peptides without 14-3-3 protein. Sigmoidal dose-response fitting was performed to define KD-values.

Another assay deals with T2, human 14-3-3γ (Homo sapiens, UniProt P61981).
T2 construct: MBP (cleaved yes); made in house; host or cells: E. coli BL21DE3
T2 sequence (P61981 1-247): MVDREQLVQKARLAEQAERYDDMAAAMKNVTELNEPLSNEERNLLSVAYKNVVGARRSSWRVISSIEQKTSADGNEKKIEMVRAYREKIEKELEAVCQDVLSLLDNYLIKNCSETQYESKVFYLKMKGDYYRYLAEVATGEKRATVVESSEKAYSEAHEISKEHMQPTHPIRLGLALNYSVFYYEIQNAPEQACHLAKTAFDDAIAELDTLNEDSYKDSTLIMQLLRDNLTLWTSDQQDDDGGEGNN
Described as above. Conditions: dilution series of 14-3-3γ (at least 5 μM down to pM), fluorescein-labeled peptide 1 nM. The protocol: as §1, §2

Assay [1] concerns all seven human 14-3-3 isoforms. Nature of the assay: Fluorescence polarization (FP) direct binding assay, statements over all isoforms. Conditions: FP direct binding; all seven isoforms; fluorescein-labeled peptide 1 nM; FP buffer pH 7. How it is done: as §1, §2
In general terms: Polarisation of emitted light reports the rotation of a fluorescent probe.

A further assay has as its target 14-3-3ε (UniProt P62258). Nature of the assay: fluorescence polarization direct binding. The conditions noted are these: reference: unphosphorylated S1443/S1444 peptide; sites S1444.
In another assay the target is T3, human 14-3-3 isoform ϵ (Homo sapiens, UniProt P62258).
T3 construct: MBP (cleaved yes); made in house; host or cells: E. coli BL21DE3
T3 sequence (P62258 1-255): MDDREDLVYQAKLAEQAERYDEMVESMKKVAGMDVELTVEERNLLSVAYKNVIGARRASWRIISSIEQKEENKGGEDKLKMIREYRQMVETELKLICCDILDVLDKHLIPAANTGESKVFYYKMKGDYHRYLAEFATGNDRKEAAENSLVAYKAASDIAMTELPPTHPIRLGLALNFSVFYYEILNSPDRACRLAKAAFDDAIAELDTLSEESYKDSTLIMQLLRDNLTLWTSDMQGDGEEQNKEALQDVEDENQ
Nature of the assay: Fluorescence polarization (FP) direct binding assay. Conditions: fluorescein-labeled peptide 1 nM. How it is done:
as §1, §2

The target of the next assay is 14-3-3γ (UniProt P61981). Nature of the assay: fluorescence polarization direct binding.
A further assay addresses T4, R1441C/pS1444 (R1441C (stands in the printed letters)).
T4 construct: LRRK2-derived peptide of the Roc domain with the familial PD mutation R1441C, phosphorylated at S1444; source: synthetic peptide (Peps4LS GmbH)
T4 peptide: fluorescein-LFNIKACAS[pS]SPVILVGT
Nature of the assay: fluorescence polarisation; direct binding; dilution series of 14-3-3 isoform (at least 5 μM down to picomolar) mixed with 1 nM fluorescein-labelled peptide; 20 mM MOPS pH 7, 150 mM NaCl, 0.005% CHAPS; 384-well plates. Conditions: both partners purified.

In a further assay the target is pS1444. The assay is described as above.

This is an account of results in publication PMC7155755, “Binding of the Human 14-3-3 Isoforms to Distinct Sites in the Leucine-Rich Repeat Kinase 2” (Frontiers in Neuroscience, 2020).

“Also recorded” adds a separate entry of the source. Square brackets hold non-standard residues; d marks the D form. Ends that are not written are not given here. fluorescein = N-terminal fluorescein label; pS = N[C@@H](COP(=O)(O)O)C(=O)O

One may read the Kd as the concentration at which binding is half-saturated. Higher therefore signals lower affinity.

With “HIEVRKELAEKMRRpTSVE [pT2524, fluorescein-labeled phosphopeptide of the LRRK2 C-terminus comprising pT2524]”, the “Binding to 14-3-3 isoform σ, in words” value on human 14-3-3 isoform σ is given as “worst binding”. Moreover, the “Binding to 14-3-3γ, in words” value at human 14-3-3γ (FP buffer pH 7) is reported as “micromolar affinities”; on human 14-3-3γ (FP buffer pH 7, listed as Phosphorylated T2524), “clearly binds with micromolar affinity”. In addition, the “Binding to the human 14-3-3 isoforms, in words” value in assay [1] is recorded as “Micromolar affinities; also recorded: low micromolar range”.
On to “LRRK2 (leucine-rich repeat kinase 2) (from UniProt Q5S007) pS1444 peptide”, for which the KD result in the assay with 14-3-3ε is on record as “gained; reference no binding detected”.
Turning to “LFNIKARApSpSSPVILVGT [pS1443/pS1444, fluorescein-labeled LRRK2 Roc domain peptide doubly phosphorylated at S1443 and S1444]”, the “Binding to 14-3-3γ, in words” value on human 14-3-3γ (FP buffer pH 7) is given as “reduced binding to 14-3-3γ compared to pS1444”. Also, the “Binding to 14-3-3 isoform ϵ, in words” value at human 14-3-3 isoform ϵ is on record as “not fitted due to an unusual binding behavior”. In assay [1], the “Binding to the human 14-3-3 isoforms, in words” value was “micromolar affinities; also recorded: reduced nanomolar binding affinity to micromolar values”.
As to “LRRK2 (leucine-rich repeat kinase 2) (from UniProt Q5S007) pS910 peptide”, the “binding against the reference” value in the assay with 14-3-3γ (reference: unphosphorylated S910 peptide, sites S910) is “gained”.
Regarding “LRRK2 (leucine-rich repeat kinase 2) (from UniProt Q5S007) pS1443/pS1444 peptide”, the KD result in the assay with 14-3-3γ (reference: pS1444 peptide, sites S1443) is on record as “weaker; reference 106 ± 4”. Further, the “binding against the reference” value with 14-3-3γ (reference: unphosphorylated S1443/S1444 peptide, sites S1443,S1444) was “gained”.

B1: human 14-3-3 isoform σ (recombinant, MBP tag removed) (natural protein, UniProt P31947 1-248, looked up)
chain: MERASLIQKAKLAEQAERYEDMAAFMKGAVEKGEELSCEERNLLSVAYKNVVGGQRAAWRVLSSIEQKSNEEGSEEKGPEVREYREKVETELQGVCDTVLGLLDSHLIKEAGDAESRVFYLKMKGDYYRYLAEVATGDDKKRIIDSARSAYQEAMDISKKEMPPTNPIRLGLALNFSVFHYEIANSPEEAISLAKTTFDEAMADLHTLSEDSYKDSTLIMQLLRDNLTLWTADNAGEEGGEAPQEPQS
notes: 14-3-3 sigma, human; Expressed from pMAL2CX plasmids; also called 14-3-3σ; source: E. coli BL21DE3, purified (maltose-agarose, Factor Xa, anion exchange)
As to B1, the “fold decrease in affinity against pS1444” value with R1441C/pS1444 is no less than 30 fold. In addition, in the assay with pS1444, the Kd was 802 nM.

B2: human 14-3-3 isoform η (recombinant, MBP tag removed) (natural protein, UniProt Q04917 1-246, looked up)
chain: MGDREQLLQRARLAEQAERYDDMASAMKAVTELNEPLSNEDRNLLSVAYKNVVGARRSSWRVISSIEQKTMADGNEKKLEKVKAYREKIEKELETVCNDVLSLLDKFLIKNCNDFQYESKVFYLKMKGDYYRYLAEVASGEKKNSVVEASEAAYKEAFEISKEQMQPTHPIRLGLALNFSVFYYEIQNAPEQACLLAKQAFDDAIAELDTLNEDSYKDSTLIMQLLRDNLTLWTSDQQDEEAGEGN
notes: 14-3-3 eta, human; Expressed from pMAL2CX plasmids; also called 14-3-3η; source: E. coli BL21DE3, purified (maltose-agarose, Factor Xa, anion exchange)
B2: in the assay with R1441C/pS1444, the “fold decrease in affinity against pS1444” value was no less than 30 fold. Further, the dissociation constant (Kd) in the assay with pS1444 was found to be 85 nM.

B3: human 14-3-3 isoform θ (recombinant, MBP tag removed) (natural protein, UniProt P27348 1-245, looked up)
chain: MEKTELIQKAKLAEQAERYDDMATCMKAVTEQGAELSNEERNLLSVAYKNVVGGRRSAWRVISSIEQKTDTSDKKLQLIKDYREKVESELRSICTTVLELLDKYLIANATNPESKVFYLKMKGDYFRYLAEVACGDDRKQTIDNSQGAYQEAFDISKKEMQPTHPIRLGLALNFSVFYYEILNNPELACTLAKTAFDEAIAELDTLNEDSYKDSTLIMQLLRDNLTLWTSDSAGEECDAAEGAEN
notes: 14-3-3 theta, human; Expressed from pMAL2CX plasmids; also called 14-3-3θ; source: E. coli BL21DE3, purified (maltose-agarose, Factor Xa, anion exchange)
Consider B3, for which the “fold decrease in affinity against pS1444” value with R1441C/pS1444 was no less than 30 fold. In the assay with pS1444, this molecule gave a Kd of 195 nM.

B4: human 14-3-3 isoform ζ (recombinant, MBP tag removed) (natural protein, UniProt P63104 1-245, looked up)
chain: MDKNELVQKAKLAEQAERYDDMAACMKSVTEQGAELSNEERNLLSVAYKNVVGARRSSWRVVSSIEQKTEGAEKKQQMAREYREKIETELRDICNDVLSLLEKFLIPNASQAESKVFYLKMKGDYYRYLAEVAAGDDKKGIVDQSQQAYQEAFEISKKEMQPTHPIRLGLALNFSVFYYEILNSPEKACSLAKTAFDEAIAELDTLSEESYKDSTLIMQLLRDNLTLWTSDTQGDEAEAGEGGEN
notes: 14-3-3 zeta, human; Expressed from pMAL2CX plasmids; also called 14-3-3ζ; source: E. coli BL21DE3, purified (maltose-agarose, Factor Xa, anion exchange)
In the case of B4, the “fold decrease in affinity against pS1444” value in the assay with R1441C/pS1444 was no less than 30 fold. For the same molecule, the Kd with pS1444 was determined as 476 nM.
